Assay results published in article PMC3416671, “Neuronal RING finger protein 11 (RNF11) regulates canonical NF-κB signaling” (Journal of Neuroinflammation, 2012).
Values belong to the binder of their own block, whether it stands above or below them.

Target: T1, endogenous RNF11 (murine primary cortical neurons) (mouse (endogenous in primary cortical …, UniProt Q9QYK7 1-154))
T1 construct: RING finger protein 11 (RNF11), endogenous in primary cortical neurons of C57BL/6 mice; also called RING finger protein 11; source: endogenous, murine primary cortical neuron lysate
T1 sequence (looked up): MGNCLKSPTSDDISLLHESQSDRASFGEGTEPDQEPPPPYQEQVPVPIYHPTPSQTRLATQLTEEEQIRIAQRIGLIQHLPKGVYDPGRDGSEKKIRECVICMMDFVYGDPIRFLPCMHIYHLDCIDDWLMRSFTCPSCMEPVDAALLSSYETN
Experiment: co-IP; lysates of murine primary cortical neurons stimulated with 10 ng/ml TNF-α for 0 or 30 minutes; IP with RNF11 antibody; control IP with antibody omitted; immunoblot with anti-A20 and Itch; densitometry normalised to input, 0 minutes set at 100%
Conditions: partners not purified

- Itch immunoreactivity in RNF11 immunoprecipitates after 30 minutes of TNF-α, relative to 0 minutes (100%): 166%
B1: endogenous Itch (murine primary cortical neurons) (natural protein)
chain: not shown
notes: E3 ligase Itch (also known as AIP4), endogenous in primary cortical neurons of C57BL/6 mice; also called AIP4; source: endogenous, murine primary cortical neuron lysate

- A20 immunoreactivity in RNF11 immunoprecipitates after 30 minutes of TNF-α, relative to 0 minutes (100%): 129%
B2: endogenous A20 (murine primary cortical neurons) (natural protein, UniProt Q60769 1-775, looked up)
chain: MAEQLLPQALYLSNMRKAVKIRERTPEDIFKPTNGIIYHFKTMHRYTLEMFRTCQFCPQFREIIHKALIDRSVQASLESQKKLNWCREVRKLVALKTNGDGNCLMHAACQYMWGVQDTDLVLRKALCSTLKETDTRNFKFRWQLESLKSQEFVETGLCYDTRNWNDEWDNLVKMASADTPAARSGLQYNSLEEIHIFVLSNILRRPIIVISDKMLRSLESGSNFAPLKVGGIYLPLHWPAQECYRYPIVLGYDSQHFVPLVTLKDSGPELRAVPLVNRDRGRFEDLKVHFLTDPENEMKEKLLKEYLIVMEIPVQGWDHGTTHLINAAKLDEANLPKEINLVDDYFELVQHEYKKWQENSDQARRAAHAQNPLEPSTPQLSLMDIKCETPNCPFFMSVNTQPLCHECSERRQKNQSKLPKLNSKLGPEGLPGVGLGSSNWSPEETAGGPHSAPPTAPSLFLFSETTAMKCRSPGCPFTLNVQHNGFCERCHARQINASHTADPGKCQACLQDVTRTFNGICSTCFKRTTAEPSSSLTSSIPASCHQRSKSDPSQLIQSLTPHSCHRTGNVSPSGCLSQAARTPGDRAGTSKCRKAGCMYFGTPENKGFCTLCFIEYRENKQSVTASEKAGSPAPRFQNNVPCLGRECGTLGSTMFEGYCQKCFIEAQNQRFHEARRTEEQLRSSQHRDMPRTTQVASRLKCARASCKNILACRSEELCMECQHLSQRVGSVAHRGEPTPEEPPKQRCRAPACDHFGNAKCNGYCNECYQFKQMYG
notes: A20 (TNF-α-induced protein 3, TNFAIP3), endogenous in primary cortical neurons of C57BL/6 mice; also called TNFAIP3; source: endogenous, murine primary cortical neuron lysate
